{"source": "paper PMC10611751", "about": "(2023)", "test_in_all_cases": "ITC", "key": {"[1]": {"biological_target": "T1, Ankyrin-G 24 ANK repeats (residues 38-855) (UniProt O70511 38-855)", "T1 chain": "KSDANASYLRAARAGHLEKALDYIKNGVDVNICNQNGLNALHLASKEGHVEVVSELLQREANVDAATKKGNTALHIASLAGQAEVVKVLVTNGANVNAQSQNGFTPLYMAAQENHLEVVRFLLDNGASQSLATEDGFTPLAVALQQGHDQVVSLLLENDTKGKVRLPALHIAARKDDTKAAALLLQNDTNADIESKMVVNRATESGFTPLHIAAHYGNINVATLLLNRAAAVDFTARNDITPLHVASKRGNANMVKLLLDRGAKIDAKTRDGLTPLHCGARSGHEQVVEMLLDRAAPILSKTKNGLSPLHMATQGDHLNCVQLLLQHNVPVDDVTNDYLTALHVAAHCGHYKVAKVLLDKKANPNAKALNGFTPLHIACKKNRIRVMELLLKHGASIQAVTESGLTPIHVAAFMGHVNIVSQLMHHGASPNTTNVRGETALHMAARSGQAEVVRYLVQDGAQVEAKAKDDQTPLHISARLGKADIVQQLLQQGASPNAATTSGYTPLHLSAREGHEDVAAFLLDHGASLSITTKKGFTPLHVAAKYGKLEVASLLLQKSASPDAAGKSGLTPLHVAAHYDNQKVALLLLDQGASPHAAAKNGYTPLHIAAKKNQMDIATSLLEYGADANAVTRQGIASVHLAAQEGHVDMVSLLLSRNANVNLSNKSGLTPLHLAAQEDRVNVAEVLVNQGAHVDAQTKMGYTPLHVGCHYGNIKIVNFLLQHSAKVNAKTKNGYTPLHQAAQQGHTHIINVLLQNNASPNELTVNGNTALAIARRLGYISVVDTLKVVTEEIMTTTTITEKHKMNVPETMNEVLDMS"}, "[2]": {"biological_target": "T1, Ankyrin-G 24 ANK repeats (residues …)"}, "[3]": {"biological_target": "T2, Ankyrin-G ANK repeats 8-14 (UniProt O70511 275-500)", "T2 chain": "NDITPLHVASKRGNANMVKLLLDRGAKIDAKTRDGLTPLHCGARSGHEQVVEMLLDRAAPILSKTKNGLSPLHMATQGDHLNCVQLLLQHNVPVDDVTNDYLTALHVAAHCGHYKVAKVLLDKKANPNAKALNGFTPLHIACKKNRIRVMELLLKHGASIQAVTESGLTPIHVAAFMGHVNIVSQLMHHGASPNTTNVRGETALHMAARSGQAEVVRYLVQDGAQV"}, "AnkG R6-24": {"biological_target": "T3, AnkG R6-24 (Rattus norvegicus)", "T3 chain": "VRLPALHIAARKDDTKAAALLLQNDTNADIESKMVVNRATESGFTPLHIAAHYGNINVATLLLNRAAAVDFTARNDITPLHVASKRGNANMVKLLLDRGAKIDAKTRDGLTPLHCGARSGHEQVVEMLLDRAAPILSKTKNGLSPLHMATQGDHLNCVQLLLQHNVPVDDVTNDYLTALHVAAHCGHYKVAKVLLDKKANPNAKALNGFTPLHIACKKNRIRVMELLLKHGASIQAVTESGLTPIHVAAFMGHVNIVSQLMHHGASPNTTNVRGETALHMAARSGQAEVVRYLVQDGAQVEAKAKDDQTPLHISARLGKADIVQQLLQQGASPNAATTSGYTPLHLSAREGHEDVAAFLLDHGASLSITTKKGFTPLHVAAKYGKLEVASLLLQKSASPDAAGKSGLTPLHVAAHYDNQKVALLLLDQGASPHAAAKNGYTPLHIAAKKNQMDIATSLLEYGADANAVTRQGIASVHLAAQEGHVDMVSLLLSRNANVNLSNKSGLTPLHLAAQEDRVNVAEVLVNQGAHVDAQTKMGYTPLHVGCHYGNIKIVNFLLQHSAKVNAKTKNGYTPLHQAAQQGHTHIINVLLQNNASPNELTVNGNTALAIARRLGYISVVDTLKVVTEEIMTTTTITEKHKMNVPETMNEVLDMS"}}, "note": "Where two headings read alike, the source gives them in different places.", "data": [{"binder": "E-cadherin 734-838 (protein) not shown", "values": [{"measurement": "Kd", "setting": "[1]", "value": 1.1, "unit": "µM"}]}, {"binder": "AYADEEGGGEEDQDFD", "note": "[E-cadherin 755-770 Y755A,Y757A]", "values": [{"measurement": "Kd", "setting": "[2]", "value": 4.1, "unit": "µM"}]}, {"binder": "PADSLLVFDYEGSGS (domain or fragment)", "note": "[E-cadherin site-2 Y829A]", "values": [{"measurement": "Kd", "setting": "[2]", "value": 1.7, "unit": "µM"}]}, {"binder": "AYYDEEGGGEEDQDFD (domain or fragment)", "note": "[E-cadherin site-1 Y755A]", "values": [{"measurement": "Kd", "setting": "[2]", "value": 5, "unit": "µM"}]}, {"binder": "E-cadherin 734-775 (domain or fragment) not shown", "values": [{"measurement": "Kd", "setting": "[1]", "value": 1.5, "unit": "µM"}]}, {"binder": "ESDQDQDADYLNEWGN (domain or fragment)", "note": "[E-cadherin site-3 Y861A]", "values": [{"measurement": "Kd", "setting": "[2]", "value": 3.2, "unit": "µM"}]}, {"binder": "YAADEEGGGEEDQDFD", "note": "[E-cadherin 755-770 Y756A,Y757A]", "values": [{"measurement": "Kd", "setting": "[2]", "value": 7.1, "unit": "µM"}]}, {"binder": "YYADEEGGGEEDQDFD (domain or fragment)", "note": "[E-cadherin site-1 Y757A]", "values": [{"measurement": "Kd", "setting": "[2]", "value": 2.2, "unit": "µM"}]}, {"binder": "ESDQDQDYDYLNEAGN (domain or fragment)", "note": "[E-cadherin site-3 W867A]", "values": [{"measurement": "Kd", "setting": "[2]", "value": 3.9, "unit": "µM"}]}, {"binder": "YAYDEEGGGEEDQDFD (domain or fragment)", "note": "[E-cadherin site-1 Y756A]", "values": [{"measurement": "Kd", "setting": "[2]", "value": 2.2, "unit": "µM"}]}, {"binder": "RDNVYYYDEEGGGEEDQDFDLSQLH (domain or fragment)", "note": "[E-cadherin 751-775 (site-1)]", "values": [{"measurement": "Kd", "setting": "[3]", "value": 8.9, "unit": "µM"}, {"measurement": "Kd", "setting": "AnkG R6-24", "value": 1.8, "unit": "µM"}]}, {"binder": "ESDQDQDADALNEWGN", "note": "[E-cadherin 854-869 Y861A,Y863A]", "values": [{"measurement": "Kd", "setting": "[2]", "value": 5.8, "unit": "µM"}]}, {"binder": "PYDSLLVFDAEGSGS (domain or fragment)", "note": "[E-cadherin site-2 Y837A]", "values": [{"measurement": "Kd", "setting": "[2]", "value": 9.5, "unit": "µM"}]}, {"binder": "E-cadherin 828-869 (containing both site-2 and site-3) (domain or fragment) not shown", "values": [{"measurement": "Kd", "setting": "[3]", "value": 7.1, "unit": "µM"}, {"measurement": "Kd", "setting": "AnkG R6-24", "value": 1, "unit": "µM"}]}, {"binder": "E-cadherin 776-884 (domain or fragment) not shown", "values": [{"measurement": "Kd", "setting": "[1]", "value": 0.8, "unit": "µM"}]}, {"binder": "ESDQDQDYDALNEWGN (domain or fragment)", "note": "[E-cadherin site-3 Y863A]", "values": [{"measurement": "Kd", "setting": "[2]", "value": 3.9, "unit": "µM"}]}, {"binder": "AAYDEEGGGEEDQDFD", "note": "[E-cadherin 755-770 Y755A,Y756A]", "values": [{"measurement": "Kd", "setting": "[2]", "value": 4.2, "unit": "µM"}]}]}
